# Experimental data from the supplement of paper PMC7125110.
# ± gives the standard error. This sample holds only a part of the variants without activity.
# B1: glmS ribozyme (parent)
# chain: AUAAAAGCGCCAGAACUACAGAAAUGUAGUUGACGAGGAGGAGGUUUAUCGAAUUUUCGGCGGAUGCCUCCAAA
# Columns and labels:
# Conditions in all cases: with glucosamine-6-phosphate
# glucosamine-6-phosphate [1] = variants of: B1; assay: self-cleavage kobs at 640 uM GlcN6P; higher = faster cleavage; RNA array
# Procedure, shortened: (§1)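 Barcoded ribozyme variants on sequenced MiSeq chips were transcribed in situ by E. coli RNA polymerase and followed at 37 °C through a hybridised Cy3 probe. Glucosamine-6-phosphate at 40 μM to 10 mM in HEPES/KCl/Mg(OAc)2 buffer was flowed in, and tiles were imaged over ~14 h. Signals were normalised to baseline and to non-cleaving reference variants, and per-tile medians were fit to one- or two-exponential decays to give kobs. Weighted Michaelis–Menten fits across concentrations gave kcat and KM.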
# glucosamine-6-phosphate [2] = variants of: B1; assay: self-cleavage kobs at 10000 uM GlcN6P; higher = faster cleavage; RNA array
# Procedure, shortened: as §1
# glucosamine-6-phosphate [3] = variants of: B1; assay: self-cleavage kobs at 160 uM GlcN6P; higher = faster cleavage; RNA array
# Procedure, shortened: as §1
# glucosamine-6-phosphate [4] = variants of: B1; assay: self-cleavage kobs at 2500 uM GlcN6P; higher = faster cleavage; RNA array
# Procedure, shortened: as §1
variant,measurement,setting,value
G7C G59C G66C,self-cleavage kobs at 640 uM GlcN6P,glucosamine-6-phosphate [1],< 1e-05 s⁻¹
same,self-cleavage kobs at 10000 uM GlcN6P,glucosamine-6-phosphate [2],< 1e-05 s⁻¹
C8A A33G C34A,self-cleavage kobs at 640 uM GlcN6P,glucosamine-6-phosphate [1],< 1e-05 s⁻¹
U47C G59A,self-cleavage kobs at 160 uM GlcN6P,glucosamine-6-phosphate [3],< 1e-05 s⁻¹
C8G A15C C16U,self-cleavage kobs at 640 uM GlcN6P,glucosamine-6-phosphate [1],< 1e-05 s⁻¹
A52U G60C,self-cleavage kobs at 160 uM GlcN6P,glucosamine-6-phosphate [3],< 1e-05 s⁻¹
same,self-cleavage kobs at 640 uM GlcN6P,glucosamine-6-phosphate [1],< 1e-05 s⁻¹
same,self-cleavage kobs at 10000 uM GlcN6P,glucosamine-6-phosphate [2],< 1e-05 s⁻¹
A52G G60A,self-cleavage kobs at 160 uM GlcN6P,glucosamine-6-phosphate [3],< 1e-05 s⁻¹
same,self-cleavage kobs at 10000 uM GlcN6P,glucosamine-6-phosphate [2],< 1e-05 s⁻¹
C50G U57G,self-cleavage kobs at 160 uM GlcN6P,glucosamine-6-phosphate [3],0.000283 ± 0.00012 s⁻¹
G7C A15U U45A,self-cleavage kobs at 640 uM GlcN6P,glucosamine-6-phosphate [1],< 1e-05 s⁻¹
same,self-cleavage kobs at 2500 uM GlcN6P,glucosamine-6-phosphate [4],< 1e-05 s⁻¹
G7C C61A G63C,self-cleavage kobs at 640 uM GlcN6P,glucosamine-6-phosphate [1],< 1e-05 s⁻¹
G63A C67U,self-cleavage kobs at 160 uM GlcN6P,glucosamine-6-phosphate [3],< 1e-05 s⁻¹
C8A G37U A52G C70G,self-cleavage kobs at 640 uM GlcN6P,glucosamine-6-phosphate [1],0.000115 ± 5.1e-05 s⁻¹
G7C A15C G51U C61A G66U,self-cleavage kobs at 640 uM GlcN6P,glucosamine-6-phosphate [1],< 1e-05 s⁻¹
A6G G32C G51C,self-cleavage kobs at 640 uM GlcN6P,glucosamine-6-phosphate [1],< 1e-05 s⁻¹
A6G A15C G32U,self-cleavage kobs at 640 uM GlcN6P,glucosamine-6-phosphate [1],< 1e-05 s⁻¹
A6U A36C A39U C71G,self-cleavage kobs at 640 uM GlcN6P,glucosamine-6-phosphate [1],< 1e-05 s⁻¹
same,self-cleavage kobs at 2500 uM GlcN6P,glucosamine-6-phosphate [4],< 1e-05 s⁻¹
U54A G59A C71A,self-cleavage kobs at 160 uM GlcN6P,glucosamine-6-phosphate [3],< 1e-05 s⁻¹
same,self-cleavage kobs at 640 uM GlcN6P,glucosamine-6-phosphate [1],< 1e-05 s⁻¹
A6U C16U G41U,self-cleavage kobs at 640 uM GlcN6P,glucosamine-6-phosphate [1],< 1e-05 s⁻¹
G7U U55G U57C,self-cleavage kobs at 640 uM GlcN6P,glucosamine-6-phosphate [1],< 1e-05 s⁻¹
same,self-cleavage kobs at 2500 uM GlcN6P,glucosamine-6-phosphate [4],< 1e-05 s⁻¹
same,self-cleavage kobs at 10000 uM GlcN6P,glucosamine-6-phosphate [2],< 1e-05 s⁻¹
A6C C16U G38U U47C G63A,self-cleavage kobs at 640 uM GlcN6P,glucosamine-6-phosphate [1],< 1e-05 s⁻¹
same,self-cleavage kobs at 2500 uM GlcN6P,glucosamine-6-phosphate [4],< 1e-05 s⁻¹
A6G A15G A42G,self-cleavage kobs at 640 uM GlcN6P,glucosamine-6-phosphate [1],0.000137 ± 4.7e-05 s⁻¹
G7C C8A U30C A33C,self-cleavage kobs at 640 uM GlcN6P,glucosamine-6-phosphate [1],< 1e-05 s⁻¹
same,self-cleavage kobs at 2500 uM GlcN6P,glucosamine-6-phosphate [4],< 1e-05 s⁻¹
same,self-cleavage kobs at 10000 uM GlcN6P,glucosamine-6-phosphate [2],< 1e-05 s⁻¹
A6C G41A U54G G59A G62C,self-cleavage kobs at 640 uM GlcN6P,glucosamine-6-phosphate [1],< 1e-05 s⁻¹
same,self-cleavage kobs at 10000 uM GlcN6P,glucosamine-6-phosphate [2],< 1e-05 s⁻¹
U46C U54A C61U,self-cleavage kobs at 160 uM GlcN6P,glucosamine-6-phosphate [3],< 1e-05 s⁻¹
same,self-cleavage kobs at 2500 uM GlcN6P,glucosamine-6-phosphate [4],< 1e-05 s⁻¹
C8A A53G G63U,self-cleavage kobs at 640 uM GlcN6P,glucosamine-6-phosphate [1],< 1e-05 s⁻¹
C8A A12C A33U A64G,self-cleavage kobs at 640 uM GlcN6P,glucosamine-6-phosphate [1],< 1e-05 s⁻¹
same,self-cleavage kobs at 2500 uM GlcN6P,glucosamine-6-phosphate [4],< 1e-05 s⁻¹
A6G G38A C50G,self-cleavage kobs at 640 uM GlcN6P,glucosamine-6-phosphate [1],0.00032 ± 7.9e-05 s⁻¹
same,self-cleavage kobs at 2500 uM GlcN6P,glucosamine-6-phosphate [4],0.000113 ± 3.5e-05 s⁻¹
C67U C68U C71G,self-cleavage kobs at 160 uM GlcN6P,glucosamine-6-phosphate [3],7.37e-05 ± 2e-05 s⁻¹
A6C U46C U47C G59A,self-cleavage kobs at 640 uM GlcN6P,glucosamine-6-phosphate [1],< 1e-05 s⁻¹
U49A G62A,self-cleavage kobs at 160 uM GlcN6P,glucosamine-6-phosphate [3],< 1e-05 s⁻¹
same,self-cleavage kobs at 640 uM GlcN6P,glucosamine-6-phosphate [1],< 1e-05 s⁻¹
A6U U69G,self-cleavage kobs at 640 uM GlcN6P,glucosamine-6-phosphate [1],0.000103 ± 2.3e-05 s⁻¹
same,self-cleavage kobs at 2500 uM GlcN6P,glucosamine-6-phosphate [4],4.72e-05 ± 1.4e-05 s⁻¹
A64G G66U C70U,self-cleavage kobs at 160 uM GlcN6P,glucosamine-6-phosphate [3],0.000115 ± 2.1e-05 s⁻¹
same,self-cleavage kobs at 640 uM GlcN6P,glucosamine-6-phosphate [1],0.000373 ± 9.3e-05 s⁻¹
same,self-cleavage kobs at 2500 uM GlcN6P,glucosamine-6-phosphate [4],0.000872 ± 0.00017 s⁻¹
G7A G40U U45G C58G,self-cleavage kobs at 640 uM GlcN6P,glucosamine-6-phosphate [1],< 1e-05 s⁻¹
same,self-cleavage kobs at 2500 uM GlcN6P,glucosamine-6-phosphate [4],< 1e-05 s⁻¹
A6U C10A A14U C70U,self-cleavage kobs at 640 uM GlcN6P,glucosamine-6-phosphate [1],0.000391 ± 8.2e-05 s⁻¹
same,self-cleavage kobs at 2500 uM GlcN6P,glucosamine-6-phosphate [4],5.43e-05 ± 2.3e-05 s⁻¹
C50G C61U C71U,self-cleavage kobs at 160 uM GlcN6P,glucosamine-6-phosphate [3],0.000138 ± 4.3e-05 s⁻¹
same,self-cleavage kobs at 640 uM GlcN6P,glucosamine-6-phosphate [1],0.000232 ± 7.4e-05 s⁻¹
same,self-cleavage kobs at 2500 uM GlcN6P,glucosamine-6-phosphate [4],9.98e-05 ± 2.4e-05 s⁻¹
same,self-cleavage kobs at 10000 uM GlcN6P,glucosamine-6-phosphate [2],0.000211 ± 5.4e-05 s⁻¹
A6U G29U G32U A42G U47A C71G,self-cleavage kobs at 640 uM GlcN6P,glucosamine-6-phosphate [1],< 1e-05 s⁻¹
same,self-cleavage kobs at 2500 uM GlcN6P,glucosamine-6-phosphate [4],< 1e-05 s⁻¹
C8A U49G C68G,self-cleavage kobs at 640 uM GlcN6P,glucosamine-6-phosphate [1],0.000875 ± 0.00033 s⁻¹
G7U G38A G44U,self-cleavage kobs at 640 uM GlcN6P,glucosamine-6-phosphate [1],< 1e-05 s⁻¹
G7A G44C C50U,self-cleavage kobs at 640 uM GlcN6P,glucosamine-6-phosphate [1],< 1e-05 s⁻¹
same,self-cleavage kobs at 2500 uM GlcN6P,glucosamine-6-phosphate [4],< 1e-05 s⁻¹
U2C G32C G60U G63C,self-cleavage kobs at 640 uM GlcN6P,glucosamine-6-phosphate [1],< 1e-05 s⁻¹
A6C C16U G60U,self-cleavage kobs at 640 uM GlcN6P,glucosamine-6-phosphate [1],< 1e-05 s⁻¹
same,self-cleavage kobs at 2500 uM GlcN6P,glucosamine-6-phosphate [4],< 1e-05 s⁻¹
A6U C50G U55A C71U,self-cleavage kobs at 640 uM GlcN6P,glucosamine-6-phosphate [1],0.00151 ± 0.00047 s⁻¹
G7C A14U U56A,self-cleavage kobs at 640 uM GlcN6P,glucosamine-6-phosphate [1],< 1e-05 s⁻¹
same,self-cleavage kobs at 2500 uM GlcN6P,glucosamine-6-phosphate [4],< 1e-05 s⁻¹
U46G U49A C50A A64G,self-cleavage kobs at 160 uM GlcN6P,glucosamine-6-phosphate [3],< 1e-05 s⁻¹
same,self-cleavage kobs at 640 uM GlcN6P,glucosamine-6-phosphate [1],< 1e-05 s⁻¹
A6G C8G C11G G13U C50G C61A C71U,self-cleavage kobs at 640 uM GlcN6P,glucosamine-6-phosphate [1],0.00556 ± 0.0017 s⁻¹
same,self-cleavage kobs at 2500 uM GlcN6P,glucosamine-6-phosphate [4],0.000121 ± 5.1e-05 s⁻¹
G7U A14C G37C,self-cleavage kobs at 640 uM GlcN6P,glucosamine-6-phosphate [1],< 1e-05 s⁻¹
same,self-cleavage kobs at 2500 uM GlcN6P,glucosamine-6-phosphate [4],< 1e-05 s⁻¹
A6C A42U C50U U57A G62C,self-cleavage kobs at 640 uM GlcN6P,glucosamine-6-phosphate [1],< 1e-05 s⁻¹
G7A C34A G43A G66U U69G,self-cleavage kobs at 640 uM GlcN6P,glucosamine-6-phosphate [1],< 1e-05 s⁻¹
same,self-cleavage kobs at 2500 uM GlcN6P,glucosamine-6-phosphate [4],< 1e-05 s⁻¹
C8A C10A A42G G60U,self-cleavage kobs at 640 uM GlcN6P,glucosamine-6-phosphate [1],< 1e-05 s⁻¹
same,self-cleavage kobs at 2500 uM GlcN6P,glucosamine-6-phosphate [4],< 1e-05 s⁻¹
A6U G40U U65C C68U,self-cleavage kobs at 640 uM GlcN6P,glucosamine-6-phosphate [1],< 1e-05 s⁻¹
same,self-cleavage kobs at 2500 uM GlcN6P,glucosamine-6-phosphate [4],< 1e-05 s⁻¹
A6C U69G,self-cleavage kobs at 640 uM GlcN6P,glucosamine-6-phosphate [1],0.000265 ± 0.00011 s⁻¹
A52C G59A,self-cleavage kobs at 160 uM GlcN6P,glucosamine-6-phosphate [3],< 1e-05 s⁻¹
same,self-cleavage kobs at 640 uM GlcN6P,glucosamine-6-phosphate [1],< 1e-05 s⁻¹
same,self-cleavage kobs at 2500 uM GlcN6P,glucosamine-6-phosphate [4],< 1e-05 s⁻¹
same,self-cleavage kobs at 10000 uM GlcN6P,glucosamine-6-phosphate [2],< 1e-05 s⁻¹
A52C G59U,self-cleavage kobs at 160 uM GlcN6P,glucosamine-6-phosphate [3],< 1e-05 s⁻¹
same,self-cleavage kobs at 640 uM GlcN6P,glucosamine-6-phosphate [1],< 1e-05 s⁻¹
same,self-cleavage kobs at 2500 uM GlcN6P,glucosamine-6-phosphate [4],< 1e-05 s⁻¹
same,self-cleavage kobs at 10000 uM GlcN6P,glucosamine-6-phosphate [2],< 1e-05 s⁻¹
G7A A15U A33G A36U G38U U57C,self-cleavage kobs at 640 uM GlcN6P,glucosamine-6-phosphate [1],< 1e-05 s⁻¹
same,self-cleavage kobs at 2500 uM GlcN6P,glucosamine-6-phosphate [4],< 1e-05 s⁻¹
U49C G51C G60C C68U,self-cleavage kobs at 160 uM GlcN6P,glucosamine-6-phosphate [3],< 1e-05 s⁻¹
same,self-cleavage kobs at 640 uM GlcN6P,glucosamine-6-phosphate [1],< 1e-05 s⁻¹
same,self-cleavage kobs at 2500 uM GlcN6P,glucosamine-6-phosphate [4],< 1e-05 s⁻¹
A6C A33C A48C G60U,self-cleavage kobs at 640 uM GlcN6P,glucosamine-6-phosphate [1],< 1e-05 s⁻¹
A6G A39C G63U A64U C67G,self-cleavage kobs at 640 uM GlcN6P,glucosamine-6-phosphate [1],< 1e-05 s⁻¹
same,self-cleavage kobs at 10000 uM GlcN6P,glucosamine-6-phosphate [2],< 1e-05 s⁻¹
G7C A64C,self-cleavage kobs at 640 uM GlcN6P,glucosamine-6-phosphate [1],< 1e-05 s⁻¹
C8A G13A G37U G59C C68G,self-cleavage kobs at 640 uM GlcN6P,glucosamine-6-phosphate [1],0.000781 ± 0.00025 s⁻¹
G7U U30A G63A,self-cleavage kobs at 640 uM GlcN6P,glucosamine-6-phosphate [1],< 1e-05 s⁻¹
A6U U56G U65A C67A,self-cleavage kobs at 640 uM GlcN6P,glucosamine-6-phosphate [1],9.86e-05 ± 3e-05 s⁻¹
same,self-cleavage kobs at 2500 uM GlcN6P,glucosamine-6-phosphate [4],0.000119 ± 2.9e-05 s⁻¹
G7U A15U U47G,self-cleavage kobs at 640 uM GlcN6P,glucosamine-6-phosphate [1],< 1e-05 s⁻¹
A6G U46C U47A,self-cleavage kobs at 640 uM GlcN6P,glucosamine-6-phosphate [1],< 1e-05 s⁻¹
G7U G35U A42G,self-cleavage kobs at 640 uM GlcN6P,glucosamine-6-phosphate [1],< 1e-05 s⁻¹
same,self-cleavage kobs at 2500 uM GlcN6P,glucosamine-6-phosphate [4],< 1e-05 s⁻¹
U47C G51U C68U,self-cleavage kobs at 160 uM GlcN6P,glucosamine-6-phosphate [3],< 1e-05 s⁻¹
same,self-cleavage kobs at 2500 uM GlcN6P,glucosamine-6-phosphate [4],< 1e-05 s⁻¹
